Laboratory results reported in patent US20130330346A1 (Novartis, published 2013).
Ends that are not written are not given here.

Key:
Human CXCR2 [1] = biological target: T1, Human CXCR2 (human, UniProt P25025 1-360); experiment: cell-based or functional assay
T1 sequence: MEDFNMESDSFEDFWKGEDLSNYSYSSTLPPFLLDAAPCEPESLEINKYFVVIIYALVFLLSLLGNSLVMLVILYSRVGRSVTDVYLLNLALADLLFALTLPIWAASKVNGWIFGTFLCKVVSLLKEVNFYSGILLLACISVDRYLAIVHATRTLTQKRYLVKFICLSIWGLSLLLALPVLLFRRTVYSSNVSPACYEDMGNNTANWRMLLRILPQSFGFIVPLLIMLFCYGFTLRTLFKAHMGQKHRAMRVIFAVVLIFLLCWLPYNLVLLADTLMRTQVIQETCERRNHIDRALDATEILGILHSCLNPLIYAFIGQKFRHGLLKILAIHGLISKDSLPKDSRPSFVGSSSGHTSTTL

Cynomolgus CXCR2 [2] = biological target: T2, Cynomolgus CXCR2 (cynomolgus, UniProt Q28519 3-353 (rhesus entry)); experiment: cell-based or functional assay
T2 chain: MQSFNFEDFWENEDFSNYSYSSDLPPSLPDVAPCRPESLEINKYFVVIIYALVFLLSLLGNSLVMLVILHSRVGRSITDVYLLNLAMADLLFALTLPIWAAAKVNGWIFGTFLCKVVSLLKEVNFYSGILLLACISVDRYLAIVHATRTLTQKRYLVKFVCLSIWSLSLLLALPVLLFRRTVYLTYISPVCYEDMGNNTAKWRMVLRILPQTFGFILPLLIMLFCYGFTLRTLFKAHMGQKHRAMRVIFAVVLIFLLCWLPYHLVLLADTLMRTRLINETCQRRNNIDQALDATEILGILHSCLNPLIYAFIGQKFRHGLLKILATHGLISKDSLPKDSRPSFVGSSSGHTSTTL

Human 1to19 peptide [3] = biological target: T3, Human 1to19 peptide (human); experiment: ELISA, periplasmic extract on biotinylated peptide
T3 construct: First 19 N-terminal amino acids of human CXCR2, captured on neutravidin; also called human CXCR2 1 to19 peptide; 1-19 Nter peptide
T3 peptide: MEDFNMESDSFEDFWKGED-biotin
Method in brief: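 Neutravidin-coated, casein-blocked plates captured 100 nM biotinylated human 1–19 peptide; 10-fold dilutions of periplasmic Nanobody extracts bound 1 h. Detection via mouse anti-myc then anti-mouse-HRP; value is ratio of binding signal over an irrelevant control Nanobody.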

Human 1to19 peptide [4] = biological target: T3, Human 1to19 peptide; experiment: peptide ELISA of Table 8 (ratio 0.6)
Human CXCR2 [5] = biological target: T1, Human CXCR2; experiment: cell-based or functional assay; remark: listed apart in the source
Cynomolgus CXCR2 [6] = biological target: T2, Cynomolgus CXCR2; experiment: cell-based or functional assay
Human CXCR2 [7] = biological target: T1, Human CXCR2; experiment: cell-based or functional assay; remark: listed apart in the source
Cynomolgus CXCR2 [8] = biological target: T2, Cynomolgus CXCR2; experiment: cell-based or functional assay
Human CXCR2 [9] = biological target: T1, Human CXCR2; experiment: FACS, periplasmic extract vs FMAT Blue Gro-α
Method in brief: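 Cells (2×10⁵) preincubated 30 min at 4 °C with ½-diluted periplasmic extracts in PBS/10% FBS. An equal volume of 6 nM FMAT Blue-labelled human Gro-α was then added for another 30 min at 4 °C in the dark. After washing, dead cells were excluded with propidium iodide and binding read by flow cytometry.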

Human CXCR2 [10] = biological target: T1, Human CXCR2; experiment: FACS competition vs 3 nM FMAT-Blue Gro-α
Protocol: (§1) Purified monovalent anti-CXCR2Nanobodies were titrated against 3 nM FMAT-Blue-labeled Gro-α in the FACS ligand competition assay on human and cynomolgus CXCR2 (Table 10). On human CXCR2, blocking potencies range between double digit nM and sub-nM whereas on cynomolgus CXCR2, they range between single and double digit nM.

Cynomolgus CXCR2 [11] = biological target: T2, Cynomolgus CXCR2; experiment: FACS competition vs 3 nM FMAT-Blue Gro-α
Protocol: as §1

Human CXCR2 [12] = biological target: T1, Human CXCR2; experiment: cell-based or functional assay; remark: listed apart in the source
Human CXCR2 [13] = biological target: T1, Human CXCR2; experiment: FACS hGro-α competition
Cynomolgus CXCR2 [14] = biological target: T2, Cynomolgus CXCR2; experiment: FACS hGro-α competition
Human CXCR2 [15] = biological target: T1, Human CXCR2; experiment: immunoluminescence, HEK-293T with wild type receptor, 2.0 ug/ml, anti-myc detection

B1: 163E3 (VHH)
VHH: EVQLVESGGGLVQPGGSLRLSCVASGRIFSSNAMGWFRQAPGKEREFVAAITWRSGGSAYYADSAKGRFTISRDNAKNTVYLQMNSLKPEDTAVYYCAAGGSSWLSFPPDYWGQGTQVTVSS
notes: Tested as periplasmic extract (pAX50) and as purified His6-tagged protein (pAX100); also called 163E03; not shown: C-terminal c-myc tag and His6 tag coded by the vector
Human Chemotaxis IC50 (GROα) (Human CXCR2 [1]): 9.3 nM | Human WBSC IC50 (rhGROα) (Human CXCR2 [1]): 9.4 nM | Cynomologus WBSC IC50 (rhGROα) (Cynomolgus CXCR2 [2]): > 100 nM | ratio of binding signal relative to blank control (Human 1to19 peptide [3]): 0.6 ratio | binding result (Human 1to19 peptide [4]): no binding | FLIPR hGro-α IC50 (Human CXCR2 [5]): 35 nM | FLIPR hGro-α IC50 (Cynomolgus CXCR2 [6]): 150 nM | FLIPR % inhibition max (Human CXCR2 [7]): 100% | FLIPR IC50 (GRO-α induced calcium release) (Human CXCR2 [7]): 44.3 nM | [35S]GTPγS % inhibition max (GRO-α) (Human CXCR2 [7]): 100% | [35S]GTPγS IC50 (GRO-α) (Human CXCR2 [7]): 64.7 nM | FLIPR % inhibition max (Cynomolgus CXCR2 [8]): 100% | FLIPR IC50 (GRO-α induced calcium release) (Cynomolgus CXCR2 [8]): 158 nM | FACS Gro-α competition (% inhibition) (Human CXCR2 [9]): 80.1% | % inhibition of max (Human CXCR2 [10]): 92.4% | IC50 (Human CXCR2 [10]): 8.96 nM | % inhibition of max (Cynomolgus CXCR2 [11]): 83.5% | IC50 (Cynomolgus CXCR2 [11]): 14.8 nM | IC50 (M) at 5 nM GROα (inhibition of GRO-α, FIG. 2) (Human CXCR2 [12]): 3.03e-08 M | IC50 (M) at 15 nM GROα (inhibition of GRO-α, FIG. 2) (Human CXCR2 [12]): 4.04e-08 M | IC50 (M) at 45 nM GROα (inhibition of GRO-α, FIG. 2) (Human CXCR2 [12]): 7.54e-08 M | IC50 (M) at 150 nM GROα (inhibition of GRO-α, FIG. 2) (Human CXCR2 [12]): 1.87e-07 M | IC50 (Human CXCR2 [13]): 10 nM | IC50 (Cynomolgus CXCR2 [14]): 22 nM

B2: CXCR20076 (VHH)
VHH: EVQLLESGGGLVQPGGSLRLSCAASGRIFSSNAMGWFRQAPGKEREFVAAITWRSGGSAYYADSVKGRFTISRDNSKNTVYLQMNSLRPEDTAVYYCAAGGSSWLSFPPDYWGQGTLVTVSS
notes: also called RD-HBC794; MAb 794
FLIPR hGro-α IC50 (Human CXCR2 [5]): 31 nM | FLIPR hGro-α IC50 (Cynomolgus CXCR2 [6]): 100 nM | IC50 (Human CXCR2 [13]): 16 nM | IC50 (Cynomolgus CXCR2 [14]): 25 nM | Signal:Background (Human CXCR2 [15]): 20 ratio
